We go through six molecules from publication PMC12583548 (Nature Communications, 2025).

Where “and” joins values, the source holds several entries; their conditions need not be identical. Equal values may be shown once.

The target of data set [1] is HAstV1 capsid spike domain, Avitag-biotinylated (human astrovirus 1 (HAstV1), UniProt O12792 433-645, biotin on the Avitag). Description: BLI; biosensors loaded with biotinylated HAstV1 spike (streptavidin, as in Fig. 1a); human or mouse FcRn in solution, 500, 250, 125, 62.5 nM; pH 7.0 (0.1 M sodium phosphate, 150 mM NaCl, 0.05% Tween-20), 25 °C; 1:1 model; average of three replicates. The note with it: both partners purified.

Data set [2] addresses T1, human FcRn mutant T149N_G151T (ectodomain heterodimer with β2M) (human, UniProt P55899 24-297; P61769 21-119, T149N | G151T).
T1 construct: signal peptide in the construct; ectodomain of the FcRn α-chain (FCGRT gene), Met1-Ser297 of UniProt P55899; β-2-microglobulin, Met1-Met119 of UniProt P61769; The change brings in the N-linked glycosylation site of mouse FcRn; source: CHO-S, electroporated, purified from the medium (StrepTrap XT)
Description: BLI; HAstV1 spike loaded, FcRn mutants in solution at 500, 250, 125, 62.5 and 31.25 nM; pH 7.0; 1:1 model. Particulars: both partners purified.

Data set [3] has as its target T2, human FcRn mutant D153E (ectodomain heterodimer with β2M) (human, UniProt P55899 24-297; P61769 21-119, D153E).
T2 construct: signal peptide in the construct; ectodomain of the FcRn α-chain (FCGRT gene), Met1-Ser297 of UniProt P55899; β-2-microglobulin, Met1-Met119 of UniProt P61769; source: CHO-S, electroporated, purified from the medium (StrepTrap XT)
The description is as above. Particulars: both partners purified.

The target in data set [4] is T3, neonatal Fc receptor (FcRn), recombinant human ectodomain heterodimer of FcRn α-chain and β2 microglobulin, … (human, UniProt P55899;P61769, biotin on the AviTag (where FcRn was loaded on streptavidin biosensors)).
T3 construct: also called human FcRn; wild-type FcRn; source: CHO-S, electroporated, purified from the medium (StrepTrap XT); not shown: AviTag, C-terminal, kept
The data set is described as above. Particulars: both partners purified.

In data set [5] the target is T3, neonatal Fc receptor (FcRn), …. Briefly: BLI; HIS1K biosensors loaded with 10x histidine-tagged spike, FcRn in solution at 1000, 500, 250, 125 and 62.5 nM; pH 7.0 buffer, 25 °C; 1:1 model. The note with it: both partners purified.
The target in data set [6] is T4, neonatal Fc receptor (FcRn), recombinant ectodomain heterodimer of FcRn α-chain and β2 microglobulin (human, UniProt P55899 24-297; P61769 21-119).
T4 construct: signal peptide in the construct; ectodomain of the wild-type FCGRT gene (FcRn α-chain), human, UniProt P55899, Met1-Ser297; followed by a C-terminal thrombin cleavage site before the tags; β-2-microglobulin (β2M), human, UniProt P61769, Met1-Met119; Tags were removed with thrombin only for crystallization; nothing is said of their removal for BLI; also called human FcRn; wild-type FcRn; source: …
Briefly: BLI; streptavidin biosensors loaded with Avitag-biotinylated HAstV1 spike K467H, dipped into FcRn; pH 5.0 (0.1 M sodium acetate, 150 mM NaCl, 0.05% Tween-20); 25 °C; 1:1 binding model; triplicate. Particulars: both partners purified.

In data set [7] the target is T4, neonatal Fc receptor (FcRn), …. Briefly: BLI; streptavidin biosensors loaded with Avitag-biotinylated HAstV1 spike K467H (3 ug/mL), dipped into FcRn (2000 nM in the shown replicate); pH 7.0 (0.1 M sodium phosphate, 150 mM NaCl, 0.05% Tween-20); 25 °C; 1:1 binding model; triplicate. The note with it: both partners purified.
Data set [8] deals with the molecule itself. Description: crystal structure; FcRn-HAstV1 spike complex, tags removed, 3.4 Å; hanging drop, 0.1 M NaCl, 0.1 M Bis-Tris:HCl pH 6.1, 1 M ammonium sulfate.
Data set [9] concerns the target T3, neonatal Fc receptor (FcRn), …. Description: BLI; streptavidin biosensors loaded with Avitag-biotinylated spike, FcRn in solution (500-62.5 nM for the wild type); pH 5.0 (0.1 M sodium acetate, 150 mM NaCl, 0.05% Tween-20), 25 °C; 1:1 model. The note with it: both partners purified.
Data set [10] shares this target. Description: BLI; streptavidin biosensors loaded with Avitag-biotinylated spike, FcRn in solution (500-62.5 nM for the wild type); pH 7.0 (0.1 M sodium phosphate, 150 mM NaCl, 0.05% Tween-20), 25 °C; 1:1 model. Particulars: both partners purified.

B1: recombinant mouse FcRn (receptor)
chain 1: SETRPPLMYHLTAVSNPSTGLPSFWATGWLGPQQYLTYNSLRQEADPCGAWMWENQVSWYWEKETTDLKSKEQLFLEALKTLEKILNGTYTLQGLLGCELASDNSSVPTAVFALNGEEFMKFNPRIGNWTGEWPETEIVANLWMKQPDAARKESEFLLNSCPERLLGHLERGRRNLEWKEPPSMRLKARPGNSGSSVLTCAAFSFYPPELKFRFLRNGLASGSGNCSTGPNGDGSFHAWSLLEVKRGDEHHYQCQVEHEGLAQPLTVDLDSSARSS
chain 2: IQKTPQIQVYSRHPPENGKPNILNCYVTQFHPPHIEIQMLKNGKKIPKVEMSDMSFSKDWSFYILAHTEFTPTETDTYACRVKHASMAEPKTVYWDRDM
In data set [1], B1 had a Kd of 58 nM, a koff of 0.003 s⁻¹ and a kon of 52000 M⁻¹ s⁻¹.

B2: HAstV1 capsid spike domain, 10x histidine-tagged (domain or fragment)
chain: KVVLTFGAPMSPNANNKQTWVNKPLDAPSGHYNVKIAKDVDHYLTMQGFTSIASVDWYTIDFQPSEAPAPIQGLQVLVNISKKADVYAIKQFVTAQTNNKHQVTSLFLVKVTTGFQVNNYLSYFYRASATGDATTNLLVRGDTYTAGISFTQGGWYLLTNTSIVDGAMPPGWVWNNVELKTNTAYHMDKGLVHLIMPLPESTQMCYEMLTSIP
notes: capsid spike domain of the HAstV1 capsid protein (ORF2), UniProt O12792; also called HAstV1 spike; WT; source: E. coli T7Express, purified (HisPur cobalt resin); not shown: His10, C-terminal, kept
In the case of B2, the Kd in data set [2] is 500 nM; in data set [3] it was 1600 nM; in data set [4] it was 230 nM; in data set [5], 270 nM. The koff in data set [5] was 0.014 s⁻¹. In addition, the kon in data set [5] came to 52000 M⁻¹ s⁻¹.

B3: HAstV1 capsid spike mutant K467H, Avitag-biotinylated (domain or fragment)
chain: KVVLTFGAPMSPNANNKQTWVNKPLDAPSGHYNVHIAKDVDHYLTMQGFTSIASVDWYTIDFQPSEAPAPIQGLQVLVNSSKKADVYAIKQFVTAQTNNKHQVTSLFLVKVTTGFQVNNYLSYFYRASATGDATTNLLVRGDTYTAGISFTQGGWYLLTNTSIVDGAMPPGWVWNNVELKTNTAYHMDKGLVHLIMPLPESTQMCYEMLTSIP
modifications: biotin on the Avitag
notes: also called HAstV1_K467H spike; HAstV1 spike K467H; source: T7Express E. coli, purified (HisPur cobalt resin); not shown: Avitag, C-terminal, kept
As for B3, in data set [6], the Kd was 447 nM and 869 nM and 1040 nM; the koff was 0.033 s⁻¹ and 0.0561 s⁻¹ and 0.0625 s⁻¹; the kon was 73900 M⁻¹ s⁻¹ and 64500 M⁻¹ s⁻¹ and 60200 M⁻¹ s⁻¹. In data set [7], the Kd is 19200 nM and 21500 nM and 26800 nM; the koff was 0.239 s⁻¹ and 0.259 s⁻¹ and 0.236 s⁻¹; the kon is 12500 M⁻¹ s⁻¹ and 12000 M⁻¹ s⁻¹ and 8800 M⁻¹ s⁻¹.

B4: HAstV1 capsid spike domain, tag removed with thrombin (domain or fragment)
chain: KVVLTFGAPMSPNANNKQTWVNKPLDAPSGHYNVKIAKDVDHYLTMQGFTSIASVDWYTIDFQPSEAPAPIQGLQVLVNISKKADVYAIKQFVTAQTNNKHQVTSLFLVKVTTGFQVNNYLSYFYRASATGDATTNLLVRGDTYTAGISFTQGGWYLLTNTSIVDGAMPPGWVWNNVELKTNTAYHMDKGLVHLIMPLPESTQMCYEMLTSIP
notes: capsid spike domain of the HAstV1 capsid protein (ORF2), UniProt O12792; Form used for the SEC complex and the crystal; also called HAstV1 spike; source: E. coli T7Express, purified (HisPur cobalt resin), tag removed with thrombin, SEC; not shown: His10, C-terminal, cleaved
In the case of B4, in [8], the “stoichiometry N” value was 2.

B5: HAstV1 capsid spike domain, Avitag-biotinylated (domain or fragment)
chain: KVVLTFGAPMSPNANNKQTWVNKPLDAPSGHYNVKIAKDVDHYLTMQGFTSIASVDWYTIDFQPSEAPAPIQGLQVLVNISKKADVYAIKQFVTAQTNNKHQVTSLFLVKVTTGFQVNNYLSYFYRASATGDATTNLLVRGDTYTAGISFTQGGWYLLTNTSIVDGAMPPGWVWNNVELKTNTAYHMDKGLVHLIMPLPESTQMCYEMLTSIP
modifications: biotin on the Avitag
notes: capsid spike domain of the HAstV1 capsid protein (ORF2), UniProt O12792; it may carry a further tag for the cobalt resin; also called biotinylated HAstV1 spike; Avitag-biotinylated HAstV1 spike; source: E. coli T7Express, purified (HisPur cobalt resin)
As to B5, the values for the Kd in [9] and in [10] were 102 nM and 188 nM, respectively.

B6: HAstV8 capsid spike domain, 10x histidine-tagged (domain or fragment)
chain: GEQFRVLLTVGPPMAPNTANSQNWVNKTIVPPENQYTVKIGIDLEHYTTMQGFTPVESVSWYTADFQPSDEPSPIPGLYARVNNTKKADVYGVQQFKSSHTNNRHQITSVFLVRVTTSFQVINYTSYFIRGAESGSNVSNLKIRDQTYHTPLQFTQGKWYLLTSTVMHDGPTSSGWVWMNQELTNNIAYRVDPGMMYLITPPPAASQLYFELHTVLPQA
notes: capsid spike domain of the HAstV8 capsid protein (ORF2); also called HAstV8 spike; source: E. coli T7Express, purified (HisPur cobalt resin); not shown: His10, C-terminal, kept
Turning to B6, in [5], the Kd was found to be 390 nM, the koff was 0.03 s⁻¹ and the kon stood at 76000 M⁻¹ s⁻¹.
